This is an account of results in patent publication US20060115475A1 (published 2006).

Numbering of substitutions follows the chain as printed. In names and notes the source's numbering stands. A value given as a limit tells only on which side of the number the result lay.

The chains are these.
B1: murine anti-hTLR3 antagonist mAb 1068 (antibody, mouse IgG1, V domains shown)
VH: QVQLQQPGAELVQPGTSVRLSCKASGYIFTTYWIHWVKQRPGQGLEWIGEINPNNGRINYNEKFKTKATLTVDKSSSTAYMQLSSLTSEDSAVYYCTRVGVMITTFPYWGQGTLVTVSA
VL: DIQMTQSPASLSASVGETVTITCRASGNIHNYLAWYQQKQGKSPQLLVYNAKTLADGVPSRFSGSESGTQYSLKINSLQPEDFGSYYCQHFWSTPFTFGSGTKLELK
notes: also called C1068; mAb C1068
B2: human-adapted anti-TLR3 mAb HV1/LV1 (antibody, human IgG4, V domains shown)
VH: QVQLVQSGAEVKKPGASVKVSCKASGYTFTTYWIHWVRQAPGQRLEWMGEINPNNGRINYNEKFKTRVTITRDTSASTAYMELSSLRSEDTAVYYCARVGVMITTFPYWGQGTLVTVSS
VL: DIQMTQSPSSLSASVGDRVTITCRASGNIHNYLAWYQQKPGKAPKLLIYNAKTLADGVPSRFSGSGSGTDFTLTISSLQPEDFATYYCQHFWSTPFTFGQGTKLEIK
notes: Human IgG4 (S228P, F234A, L235A), kappa; not shown: human kappa light chain constant region
B3: human-adapted anti-TLR3 mAb HV5/LV1 (antibody, human IgG4, V domains shown)
VH: B2 VH with P41T, R44G, I70M, D73N, A76I
VL: B2 VL
notes: as for B2
B4: human-adapted anti-TLR3 mAb HV5/LV5 (antibody, human IgG4, V domains shown)
VH: B2 VH with P41T, R44G, I70M, D73N, A76I
VL: B2 VL with A43V, F83V, Q100G, L104V
notes: as for B2
B5: human-adapted anti-TLR3 mAb HV1/LV7 (antibody, human IgG4, V domains shown)
VH: B2 VH
VL: B2 VL with Y36F, L46S
notes: as for B2
B6: human-adapted anti-TLR3 mAb HV4/LV3 (antibody, human IgG4, V domains shown)
VH: B2 VH with R44G, I70M, A76I, S85R, E89D
VL: B2 VL with L46R, D70E
notes: as for B2
B7: human-adapted C1068 variant mAb HBV6 (Vκ CDR1 H30S in the HV1/LV1 background) (antibody, V domains shown)
VH: B2 VH
VL: B2 VL with H30S
notes: Made in the HV1/LV1 background; not shown: human kappa light chain constant region
B8: human-adapted anti-TLR3 mAb HV7/LV5 (antibody, human IgG4, V domains shown)
VH: B2 VH with A16S, Y27G, T30S, R44G, R72A, T74E, A76T, Q111R
VL: B2 VL with A43V, F83V, Q100G, L104V
notes: as for B2
B9: human-adapted anti-TLR3 mAb HV4/LV7 (antibody, human IgG4, V domains shown)
VH: B2 VH with R44G, I70M, A76I, S85R, E89D
VL: B2 VL with Y36F, L46S
notes: as for B2
B10: human-adapted anti-TLR3 mAb HV7/LV1 (antibody, human IgG4, V domains shown)
VH: B2 VH with A16S, Y27G, T30S, R44G, R72A, T74E, A76T, Q111R
VL: B2 VL
notes: as for B2
B11: human-adapted anti-TLR3 mAb HV5/LV7 (antibody, human IgG4, V domains shown)
VH: B2 VH with P41T, R44G, I70M, D73N, A76I
VL: B2 VL with Y36F, L46S
notes: as for B2
B12: human-adapted anti-TLR3 mAb HV1/LV3 (antibody, human IgG4, V domains shown)
VH: B2 VH
VL: B2 VL with L46R, D70E
notes: as for B2
B13: human-adapted anti-TLR3 mAb HV4/LV5 (antibody, human IgG4, V domains shown)
VH: B2 VH with R44G, I70M, A76I, S85R, E89D
VL: B2 VL with A43V, F83V, Q100G, L104V
notes: as for B2
B14: human-adapted anti-TLR3 mAb HV5/LV3 (antibody, human IgG4, V domains shown)
VH: B2 VH with P41T, R44G, I70M, D73N, A76I
VL: B2 VL with L46R, D70E
notes: as for B2
B15: human-adapted anti-TLR3 mAb HV1/LV5 (antibody, human IgG4, V domains shown)
VH: B2 VH
VL: B2 VL with A43V, F83V, Q100G, L104V
notes: as for B2
B16: human-adapted anti-TLR3 mAb HV7/LV7 (antibody, human IgG4, V domains shown)
VH: B2 VH with A16S, Y27G, T30S, R44G, R72A, T74E, A76T, Q111R
VL: B2 VL with Y36F, L46S
notes: as for B2
B17: human-adapted anti-TLR3 mAb HV4/LV1 (antibody, human IgG4, V domains shown)
VH: B2 VH with R44G, I70M, A76I, S85R, E89D
VL: B2 VL
notes: as for B2
B18: human-adapted C1068 variant mAb HBV3 (Vh CDR2 N61A in the HV1/LV1 background) (antibody, V domains shown)
VH: B2 VH with N61A
VL: B2 VL
notes: as for B7
B19: human-adapted C1068 variant mAb HBV5 (Vh CDR3 M102I in the HV1/LV1 background) (antibody, V domains shown)
VH: B2 VH with M102I
VL: B2 VL
notes: as for B7
B20: human-adapted C1068 variant mAb HBV1 (Vh CDR1 I34M in the HV1/LV1 background) (antibody, V domains shown)
VH: B2 VH with I34M
VL: B2 VL
notes: Made in the HV1/LV1 background and generated 'as described above'; not shown: human kappa light chain constant region
B21: human-adapted C1068 variant mAb HBV2 (Vh CDR2 Y60G in the HV1/LV1 background) (antibody, V domains shown)
VH: B2 VH with Y60G
VL: B2 VL
notes: as for B7
B22: human-adapted C1068 variant mAb HBV4 (Vh CDR2 F64G in the HV1/LV1 background) (antibody, V domains shown)
VH: B2 VH with F64G
VL: B2 VL
notes: as for B7

The target of one experiment is T1, soluble human TLR3 extracellular domain (human, UniProt O15455 24-703).
T1 construct: also called hTLR3 extracellular domain; extracellular domain of human TLR3
The experiment in a line: ELISA, coated soluble hTLR3 extracellular domain, anti-mouse IgG-HRP.
In turn, B1 registered an EC50 of 0.008 µg/mL.

The target of another experiment is T2, Human hexa-histidine-TLR3 (human, UniProt O15455 24-703, limits assumed).
T2 construct: Captured by anti-His antibody on a CM5 chip; also called TLR3 (captured on the chip surface); not shown: hexa-histidine tag
The experiment is described as follows: Biacore 3000, hexa-histidine-TLR3 captured on anti-His antibody, mAb in solution, 25 C, 1:1 model.
For B1, the Kd is 0.316 nM. B2 had a Kd of 1.7 nM.

In turn, B3 came in with a dissociation constant Kd of 0.65 nM. As to B4, the Kd turned out to be 0.7 nM. The same measure, in the same setting: next, B5: 90 nM; B6: 3.4 nM.

The target in the next experiment is T1, soluble human TLR3 extracellular domain. The experiment is described as follows: ELISA, TLR3 binding assay.
On to B7, for which the EC50 was more than 1 µg/mL.

The next experiment has the same target. The experiment in a line: ELISA, coated soluble hTLR3 extracellular domain, HRP-labeled anti-human IgG.
B3 registered an EC50 of 0.0155 µg/mL. For B8, the concentration giving a half-maximal response (EC50) came out at 1.82 µg/mL. Take B9: a half-maximal effect (EC50) was put at 0.183 µg/mL. As to B10, the concentration for a half-maximal effect (EC50) was 1.47 µg/mL. For the molecule B11, the midpoint of the response, the EC50, lay at 0.0786 µg/mL.

With B4, the 50% effective concentration (EC50) came out at 0.0137 µg/mL. On the same count and under the same terms, next, B12: 0.118 µg/mL; B13: 0.0187 µg/mL.

The molecule B14 came in with an EC50 of 0.0289 µg/mL. Molecule B5 displayed an EC50 of 0.289 µg/mL.

On to B6, for which it took 0.0602 µg/mL to reach a half-maximal effect (EC50).

In turn, B15 registered a half-maximal effective concentration (EC50) of 0.0277 µg/mL. Molecule B16 gave an EC50 of 4.26 µg/mL.

B17 had an EC50 of 0.0291 µg/mL.

The target is the same in a further experiment. The experiment is described as follows: ELISA, TLR3 binding assay as in Example 20.
Regarding B18, the EC50 came out at 0.048 µg/mL. The same measure, in the same setting: next, B19: 0.0747 µg/mL.

The molecule B20 came in with a concentration giving a half-maximal response (EC50) of 0.017 µg/mL. Molecule B21 registered a half-maximal effective concentration (EC50) of 0.0146 µg/mL. Turning to B22, the midpoint of the response, the EC50, lay at 0.0409 µg/mL.

For a further experiment the target is unchanged. The experiment is described as follows: Biacore 2000, mAb captured on protein A, TLR3 in solution, 25 C, 1:1 model; mAb capture (mAb on protein A chip, TLR3 in solution).
Experimental: (§1) Measurement of binding affinity by Biacore was performed by mAb capture and TLR3 capture techniques. MAb capture analysis was performed at 25° C. using a Biacore 2000 biosensor equipped with a CM5 chip with surfaces modified with protein A (6,000 RU) at 25° C. by standard amine coupling. Antibody was diluted to 30 nM and captured for one minute on different protein A surfaces. TLR3 was injected at 0, 0.1, 0.3, 1.0, 3.0, and 9.0 nM and associations and dissociations were monitored for 5 minutes. The protein A modified surfaces were regenerated using two 6-second pulses 100 mM phosphoric acid. Available binding data sets were fit to a 1:1 interaction model (CLAMP™). The rate constants and their ratio (KD=kd/kₐ) and the error of fit carried over the estimate of the apparent equilibrium constants were calculated.
On to B1, for which the Kd came to 1.2 nM.

For a further experiment the target is unchanged. The experiment is described as follows: ELISA, TLR3 binding assay as in Example 20. The source holds these as a separate data set.
In turn, B7 registered an EC50 of 1.22 µg/mL.

The target is the same in another experiment. The experiment in a line: Biacore 2000, mAb captured on protein A, TLR3 in solution, 25 C, 1:1 model.
Experimental: as §1
For B3, the affinity, expressed as Kd, was 2 nM. Molecule B4 displayed a dissociation constant (Kd) of 1.1 nM. B5: the dissociation constant (Kd) came out at 7.2 nM. B6 came in with a Kd of 0.5 nM.
